Test [1] deals with T1, SARS-CoV-2 RBD (residues 331-550 of spike from BetaCoV/Wuhan-Hu-1/2019, accession number MN908947) (SARS-CoV-2 Wuhan-Hu-1, UniProt P0DTC2 331-550).
The target of test [2] is T2, SARS-CoV RBD (Sino Biological) (SARS-CoV, UniProt P59594 306-527).
Test [3] addresses T1, SARS-CoV-2 RBD (residues 331-550 of …). The source holds these as a separate data set.
The target is the same in test [4]. The test can be described thus: BLI (Octet): antibody on Protein A pins, SARS-CoV-2 RBD at 6, 1.5 and 0.4 µg/ml.
Test [5] has as its target SARS-CoV-2 RBD-mouse Fc (Sino Biological) (SARS-CoV-2, UniProt P0DTC2 331-541).
Test [6] deals with T1, SARS-CoV-2 RBD (residues 331-550 of …). As to the kind of experiment: BLI (Octet): antibody on Protein A pins, SARS-CoV-2 RBD at 6, 1.5 and 0.4 µg/ml. This is another data set of the same source. Background: Biolayer interferometry detects binding as a change in optical thickness at a sensor tip.
Test [7] shares this target. The test can be described thus: ELISA, plate coated with SARS-CoV-2 RBD; antibodies as rIgG1-LS. (ELISA stands for enzyme-linked immunosorbent assay.)
Test [8] has the same target. The test can be described thus: ELISA, plate coated with SARS-CoV-2 RBD, OD405nm.
For the next test, the target named is SARS-CoV-2 Spike protein (SARS-CoV-2 Wuhan-Hu-1, UniProt P0DTC2 14-1273). The test can be described thus: cell-based or functional assay.
Test [9] addresses T2, SARS-CoV RBD (Sino Biological). As to the kind of experiment: ELISA.
In test [10] the target is T1, SARS-CoV-2 RBD (residues 331-550 of …). The test can be described thus: ELISA, plate coated with SARS-CoV-2 RBD; antibodies as rIgG1-LS. This is another data set of the same source.
Test [11] shares this target. As to the kind of experiment: BLI (Octet): antibody on Protein A pins, SARS-CoV-2 RBD at 6, 1.5 and 0.4 µg/ml. The source holds these as a separate data set.

Read-outs that look alike come from different tables or passages of the source.

One may read the EC50 as the concentration needed to bring the measured effect to its halfway point. A lower EC50 goes with a more potent agent. The term Kd denotes the free concentration of one partner at which half of the binding sites on the other are occupied at equilibrium, for simple one-to-one binding. Low values mean higher affinity, high ones lower affinity. The IC50 is the concentration that inhibits the measured activity by half. A word on the EC50 (read off the curve): it is the concentration giving half of the maximal effect.

B1: S2X200 (antibody, V domains shown)
VH: EVHLVESGGGLIQPGGSLRLSCAASGITVSSNYMSWVRQAPGKGLEWVSVIYSGGSTFYADSVKGRFTISRDNSKNTVYLQMNSLRAEDTAVYYCARDLVTYGMDVWGQGTTVTVSS
VL: EIVLTQSPSFLSASVGDRVTITCRASQGISSYLAWYQQKPGKAPKLLIYAASTLQSGVPSRFSGSGSGTEFTLTISSLQPEDFATYYCQQLNGDPPIFGHGTRLEIK
In test [1], B1 had an EC50 of 0.00151 µg/mL.

B2: S2X259 Fab (Fab, V domains shown)
VH: QVQLVQSGAEVKKPGSSVKVSCKASGGIFNTYTISWVRQAPGQGLEWMGRIILMSGMANYAQKIQGRVTITADKSTSTAYMELTSLRSDDTAVYYCARGFNGNYYGWGDDDAFDISGQGTLVTVYS
VL: QTVLTQPPSVSGAPGQRVTISCTGSNSNIGAGYDVHWYQQLPGTAPKLLICGNSNRPSGVPDRFSGSKSGTSASLAITGLQAEDEADYYCQSYDSSLSGPNWVFGGGTKLTVL
As to B2, the Kd is 1.6 nM in [2] and 0.08 nM in test [3].

B3: S2X190 (antibody, V domains shown)
VH: EVQLVESGGGVVQPGRSLRLSCAASGFPFSTYGMHWVRQAPGKGLEWVAVIWYDGSTKYYADSVKGRFTISRDNSKNTLYLQMNSLRAEDTALYYCARVHSSGPGDEYFQHWGQGTLLTVSS
VL: DIVMTQSPSSLSASVGDRVTITCRASQGISSGLAWYQQKPGKGPKVLIYDASSLESGVPSRFSGSASGTDFTLTISSLQPEDFATYFCQQFYSYPLTFGGGTKVEIK
Turning to B3, the Kd in test [4] came out at 0.923 nM. In addition, 0.02 µg/mL corresponded to half-maximal inhibition in test [5] (IC50).

B4: S2X129 (antibody, V domains shown)
VH: EVQLVQSGAEVKKPGASVKVSCKASGYTFTDYFMHWVRQAPGQGLEWMGWISPNSGGTNYAQRFQGRVTMTRDTSISTTYMELSRLRSDDTAVYYCARDQAYIVLAQGSGMDVWGQGTTVTVSS
VL: DIVMTQTPSSVSASVGDRVTITCRASQGISSWLAWYQQKPGKAPKLLISAASSLQSGVPSRFSGSGSGTDFTLTISTLQPEDFATYYCQQANSFPLAFGPGTKVDIK
B4: the IC50 in test [5] is 0.0214 µg/mL. Besides, binding in [6] was put at a Kd of 0.857 nM.

B5: S2D43 (antibody, V domains shown)
VH: QVTLKESGPTLVKPTQTLTLTCTFSGFSLSTSGVGVGWLRQPPGKALEWLALIYWDDDKRYSPSLKNRLTVTKDTSKNQVVLTMTNLDPVDTATYYCAHDNTLGGSSTWQSTFDYWGQGTLVTVSS
VL: QSVLTQPPSVSEAPRQRVTISCSGSNSNIGNNAVHWYQQLPGKAPKLLIYYDDLLPSGVSDRFSGSKSGTSASLAISGLQSEDEADYYCAAWDDRMNGPVFGGGTKLTVL
Consider B5, for which the binding result in test [7] is “binds”.

B6: S2F1 (antibody, V domains shown)
VH: EVQLLESGGGLVQPGGSLRLSCAGSGFSVSNHAMSWVRQAPGKGLEWVSAIGGSDSTTYYADSVKGRFAISRDNSKNTLYLQMNSLRADDTAIYYCAKDNYTSTWFPFDYWGQGTQVIVSS
VL: DVVMTQSPLSLPVTLGQPASISCRSSHSLVHGDGNTYLNWFQQRPGQSPRRLIHKVSNRDSGVPDRFSGSGSGTDFTLKISRVEAEDVGVYYCMQGSYWPPWTFGQGTKVEIN
On to B6, for which the binding result in test [8] is “binds”.

B7: S2D60 (antibody, V domains shown)
VH: EVQLVQSGPEVKKPGTSVKVSCKASGFTFMSSAVQWVRQARGQRLEWIGWIVVGSGNTNYTQKFRERVTITRDMSTSTAYMELSSLRSEDTAVYYCAAPRCSGGSCHDGFDIWGQGTMVTVSS
VL: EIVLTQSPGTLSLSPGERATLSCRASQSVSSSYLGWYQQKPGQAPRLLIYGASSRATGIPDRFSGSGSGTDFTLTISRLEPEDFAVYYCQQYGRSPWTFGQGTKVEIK
With B7, in the test with SARS-CoV-2 Spike protein, the “neutralization IC50” value came out at 0.012 µg/mL, the “neutralization IC80” value came to 0.04 µg/mL, the “neutralization IC90” value was 0.084 µg/mL and the “neutralization IC95” value turned out to be 0.164 µg/mL. The binding result in [9] is “no binding”. For the same molecule, the “EC50 (read off the curve)” value in test [10] is roughly 0.1 µg/mL.

B8: S2X132 (antibody, V domains shown)
VH: EVQLVESGGGLVQPGGSLRLSCAASGFTVSSNYMSWVRQAPGKGLEWVSVIYSGGNTYYADSVKGRFTISRDNSKNTLYLQMISLRAEDTAVYYCARDRRLPSIIFGLDVWGQGTTVTVSS
VL: QSALTQPASVSGSPGQSITISCTGTSSDVGGNNHVSWYRQHPGKAPKLMIYEVSNRPSGVSNRFSGSKSGNTASLTISGLQAGDEADYYCSSFTTYTTDVVFGGGTKLTVL
As for B8, it took 0.0248 µg/mL to reach half-maximal inhibition in test [5] (IC50). The molecule further had a Kd in test [11] of 0.709 nM.

The values above are taken from patent US20240059757A1 (VIR BIOTECHNOLOGY, published 2024).
